Consider five molecules from US20230407373A1 (priority 2020, published 2023).

Read-outs that look alike come from different tables or passages of the source.

Holding throughout (type): binding
For one experiment, the system named is SARS-CoV-2 gRNA. To be noted: for target (unweighted spectral count of the protein in the RNP capture): LC-MS/MS, Probe I sample (first 199 lines of Table 2).
In experiment [1] the test system is SARS-CoV-2 gRNA and sgRNAs. As to conditions: for target (unweighted spectral count in RNP capture): Probe II capture, LC-MS/MS LFQ; for background (unweighted spectral count in control): no-probe control pull-down, used as background for Probe II.
For the next experiment, the system named is HCoV-OC43 gRNA and sgRNA. To be noted: for target (spectral count) / background (spectral count): type s_36_m, Probe II; for target (spectral count): HCoV-OC43-infected HCT-8 cells; for background (spectral count): uninfected-probe control.
The next experiment deals with gRNA of HCoV-OC43. As to conditions: for target (spectral count) / background (spectral count): type g_36_m, 36 hpi, Probe I; for target (spectral count): HCoV-OC43-infected HCT-8 cells; for background (spectral count): uninfected-probe control; for target (spectral count, OC43 Probe I RNP capture) / background (spectral count, no-probe control): type n_48_v: 48 hours post-infection; for target (spectral count, OC43 Probe I RNP capture): infected cells, unweighted spectral count; for background (spectral count, no-probe control): no-probe control on infected cells.

Where [2] appears, read: 36 hpi, type n_36_v, tested against no-probe control, FDR<10%.
Where [3] appears, read: OC43 Probe II, 24 hpi (type n_24_v), infected cells, tested against no-probe control.
The mark [4] stands for this setting: type n_48_v, 48 hpi, OC43 Probe II capture on infected cells.
Setting [5] is: type n_48_v, 48 hpi, no-probe control on infected cells.

B1: SRSF7 (protein, UniProt Q16629 1-238, looked up)
Serine/arginine-rich splicing …: MSRYGRYGGETKVYVGNLGTGAGKGELERAFSYYGPLRTVWIARNPPGFAFVEFEDPRDAEDAVRGLDGKVICGSRVRVELSTGMPRRSRFDRPPARRPFDPNDRCYECGEKGHYAYDCHRYSRRRRSRSRSRSHSRSRGRRYSRSRSRSRGRRSRSASPRRSRSISLRRSRSASLRRSRSGSIKGSRYFQSPSRSRSRSRSISRPRSSRSKSRSPSPKRSRSPSGSPRRSASPERMD
Take B1: in the experiment with SARS-CoV-2 gRNA, the “target (unweighted spectral count of the protein in the RNP capture)” value is listed as 21. For the same molecule, in experiment [1], the “target (unweighted spectral count in RNP capture)” value is listed as 16 and the “background (unweighted spectral count in control)” value came out at 1. Further, in the experiment on HCoV-OC43 gRNA and sgRNA, the “background (unweighted spectral count, no-probe control)” value stood at 4; the “target (unweighted spectral count)” value is reported as 5; the “target (unweighted spectral count, OC43 Probe II capture)” value is listed as 14; the “target (unweighted spectral count, OC43 Probe II)” value is reported as 19.

B2: DDX17 (protein, UniProt Q92841 1-729, looked up)
Probable ATP-dependent RNA …: MPTGFVAPILCVLLPSPTREAATVASATGDSASERESAAPAAAPTAEAPPPSVVTRPEPQALPSPAIRAPLPDLYPFGTMRGGGFGDRDRDRDRGGFGARGGGGLPPKKFGNPGERLRKKKWDLSELPKFEKNFYVEHPEVARLTPYEVDELRRKKEITVRGGDVCPKPVFAFHHANFPQYVMDVLMDQHFTEPTPIQCQGFPLALSGRDMVGIAQTGSGKTLAYLLPAIVHINHQPYLERGDGPICLVLAPTRELAQQVQQVADDYGKCSRLKSTCIYGGAPKGPQIRDLERGVEICIATPGRLIDFLESGKTNLRRCTYLVLDEADRMLDMGFEPQIRKIVDQIRPDRQTLMWSATWPKEVRQLAEDFLRDYTQINVGNLELSANHNILQIVDVCMESEKDHKLIQLMEEIMAEKENKTIIFVETKRRCDDLTRRMRRDGWPAMCIHGDKSQPERDWVLNEFRSGKAPILIATDVASRGLDVEDVKFVINYDYPNSSEDYVHRIGRTARSTNKGTAYTFFTPGNLKQARELIKVLEEANQAINPKLMQLVDHRGGGGGGGGRSRYRTTSSANNPNLMYQDECDRRLRGVKDGGRRDSASYRDRSETDRAGYANGSGYGSPNSAFGAQAGQYTYGQGTYGAAAYGTSSYTAQEYGAGTYGASSTTSTGRSSQSSSQQFSGIGRSGQQPQPLMSQQFAQPPGATNMIGYMGQTAYQYPPPPPPPPPSRK
In the case of B2, in the experiment with SARS-CoV-2 gRNA, the “target (unweighted spectral count of the protein in the RNP capture)” value was 24. In experiment [1], the “target (unweighted spectral count in RNP capture)” value worked out at 15 and the “background (unweighted spectral count in control)” value was determined as 1. Also, in the experiment on HCoV-OC43 gRNA and sgRNA (setting [2]), the “target (unweighted spectral count, OC43 Probe II capture)” value is recorded as 17. Also, in the experiment on HCoV-OC43 gRNA and sgRNA (setting [3]), the “target (unweighted spectral count)” value is 9.

B3: PABPC4: host protein, UniProt Q13310 (protein, UniProt Q13310 1-644, looked up)
Polyadenylate-binding protein …: MNAAASSYPMASLYVGDLHSDVTEAMLYEKFSPAGPVLSIRVCRDMITRRSLGYAYVNFQQPADAERALDTMNFDVIKGKPIRIMWSQRDPSLRKSGVGNVFIKNLDKSIDNKALYDTFSAFGNILSCKVVCDENGSKGYAFVHFETQEAADKAIEKMNGMLLNDRKVFVGRFKSRKEREAELGAKAKEFTNVYIKNFGEEVDDESLKELFSQFGKTLSVKVMRDPNGKSKGFGFVSYEKHEDANKAVEEMNGKEISGKIIFVGRAQKKVERQAELKRKFEQLKQERISRYQGVNLYIKNLDDTIDDEKLRKEFSPFGSITSAKVMLEDGRSKGFGFVCFSSPEEATKAVTEMNGRIVGSKPLYVALAQRKEERKAHLTNQYMQRVAGMRALPANAILNQFQPAAGGYFVPAVPQAQGRPPYYTPNQLAQMRPNPRWQQGGRPQGFQGMPSAIRQSGPRPTLRHLAPTGSECPDRLAMDFGGAGAAQQGLTDSCQSGGVPTAVQNLAPRAAVAAAAPRAVAPYKYASSVRSPHPAIQPLQAPQPAVHVQGQEPLTASMLAAAPPQEQKQMLGERLFPLIQTMHSNLAGKITGMLLEIDNSELLHMLESPESLRSKVDEAVAVLQAHHAKKEAAQKVGAVAAATS
B3: in the experiment on SARS-CoV-2 gRNA, the “enrichment in SARS-CoV-2 Probe I RNP capture” value is reported as “found in the SARS-CoV-2 experiments”. For the same molecule, the “enrichment in SARS-CoV-2 Probe II RNP capture” value in experiment [1] is reported as “found in the SARS-CoV-2 experiments”. In the experiment with gRNA of HCoV-OC43, the “target (spectral count)” value is listed as 12; the “background (spectral count)” value worked out at 2; the “target (spectral count, OC43 Probe I RNP capture)” value was found to be 11; the “background (spectral count, no-probe control)” value was 1. In addition, the “target (unweighted spectral count, OC43 Probe II capture)” value in the experiment with HCoV-OC43 gRNA and sgRNA (setting [2]) was found to be 11. Also, in the experiment on HCoV-OC43 gRNA and sgRNA (setting [3]), the “target (unweighted spectral count)” value stood at 6. Besides, the “target (unweighted spectral count, OC43 Probe II)” value in the experiment with HCoV-OC43 gRNA and sgRNA (setting [4]) is 11. Further, the “background (unweighted spectral count, no-probe control)” value in the experiment with HCoV-OC43 gRNA and sgRNA (setting [5]) is 1. Also, in the experiment with HCoV-OC43 gRNA and sgRNA (36 hpi), the “target (spectral count)” value is 11 and the “background (spectral count)” value is on record as 1.

B4: RALY: host protein, UniProt Q9UKM9 (protein, UniProt Q9UKM9 2-306, looked up)
RNA-binding protein Raly: SLKLQASNVTNKNDPKSINSRVFIGNLNTALVKKSDVETIFSKYGRVAGCSVHKGYAFVQYSNERHARAAVLGENGRVLAGQTLDINMAGEPKPDRPKGLKRAASAIYSGYIFDYDYYRDDFYDRLFDYRGRLSPVPVPRAVPVKRPRVTVPLVRRVKTNVPVKLFARSTAVTTSSAKIKLKSSELQAIKTELTQIKSNIDALLSRLEQIAAEQKANPDGKKKGDGGGAGGGGGGGGSGGGGSGGGGGGGSSRPPAPQENTTSEAGLPQGEARTRDDGDEEGLLTHSEEELEHSQDTDADDGALQ
As to B4, in the experiment with SARS-CoV-2 gRNA, the “enrichment in SARS-CoV-2 Probe I RNP capture” value is “found in the SARS-CoV-2 experiments” and the “target (unweighted spectral count of the protein in the RNP capture)” value amounted to 33. Moreover, in experiment [1], the “enrichment in SARS-CoV-2 Probe II RNP capture” value was “found in the SARS-CoV-2 experiments”, the “target (unweighted spectral count in RNP capture)” value is given as 28 and the “background (unweighted spectral count in control)” value amounted to 1. For the same molecule, in the experiment with gRNA of HCoV-OC43, the “target (spectral count)” value came to 28; the “background (spectral count)” value was determined as 3; the “target (spectral count, OC43 Probe I RNP capture)” value is 31; the “background (spectral count, no-probe control)” value was determined as 2. Further, the “target (unweighted spectral count, OC43 Probe II capture)” value in the experiment on HCoV-OC43 gRNA and sgRNA (setting [2]) came out at 23. Also, the “target (unweighted spectral count)” value in the experiment on HCoV-OC43 gRNA and sgRNA (OC43 Probe II, 12 hpi (type n_12_v), infected cells, tested against no-probe control) is 4. Besides, in the experiment on HCoV-OC43 gRNA and sgRNA (setting [3]), the “target (unweighted spectral count)” value was 14. In addition, in the experiment with HCoV-OC43 gRNA and sgRNA (setting [4]), the “target (unweighted spectral count, OC43 Probe II)” value is 24. Further, the “background (unweighted spectral count, no-probe control)” value in the experiment with HCoV-OC43 gRNA and sgRNA (setting [5]) came to 2. Further, in the experiment on HCoV-OC43 gRNA and sgRNA (36 hpi), the “target (spectral count)” value is on record as 23 and the “background (spectral count)” value was 2.

B5: LRRC47: host protein, UniProt Q8N1G4 (protein, UniProt Q8N1G4 2-583, looked up)
Leucine-rich …: AAAAVSESWPELELAERERRRELLLTGPGLEERVRAAGGQLPPRLFTLPLLHYLEVSGCGSLRAPGPGLAQGLPQLHSLVLRRNALGPGLSPELGPLPALRVLDLSGNALEALPPGQGLGPAEPPGLPQLQSLNLSGNRLRELPADLARCAPRLQSLNLTGNCLDSFPAELFRPGALPLLSELAAADNCLRELSPDIAHLASLKTLDLSNNQLSEIPAELADCPKLKEINFRGNKLRDKRLEKMVSGCQTRSILEYLRVGGRGGGKGKGRAEGSEKEESRRKRRERKQRREGGDGEEQDVGDAGRLLLRVLHVSENPVPLTVRVSPEVRDVRPYIVGAVVRGMDLQPGNALKRFLTSQTKLHEDLCEKRTAATLATHELRAVKGPLLYCARPPQDLKIVPLGRKEAKAKELVRQLQLEAEEQRKQKKRQSVSGLHRYLHLLDGNENYPCLVDADGDVISFPPITNSEKTKVKKTTSDLFLEVTSATSLQICKDVMDALILKMAEMKKYTLENKEEGSLSDTEADAVSGQLPDPTTNPSAGKDGPSLLVVEQVRVVDLEGSLKVVYPSKADLATAPPHVTVVR
For B5, the “target (unweighted spectral count of the protein in the RNP capture)” value in the experiment with SARS-CoV-2 gRNA is listed as 14. In experiment [1], the “target (unweighted spectral count in RNP capture)” value is recorded as 13 and the “background (unweighted spectral count in control)” value is 1. Besides, in the experiment with HCoV-OC43 gRNA and sgRNA (24 hpi, type n_24_v, tested against no-probe control, FDR<10%), the “target (unweighted spectral count, OC43 Probe II capture)” value came to 4. In addition, in the experiment with HCoV-OC43 gRNA and sgRNA (36 hpi), the “target (spectral count)” value is 7 and the “background (spectral count)” value is 1.
